# B1: Staphylococcus aureus serine protease-like protein B (SplB), recombinant, catalytically active (enzyme, UniProt Q2FFT0 37-240, looked up)
# chain: ENNVTKVKDTNIFPYTGVVAFKSATGFVVGKNTILTNKHVSKNYKVGDRITAHPNSDKGNGGIYSIKKIINYPGKEDVSVIQVEERAIERGPKGFNFNDNVTPFKYAAGAKAGERIKVIGYPHPYKNKYVLYESTGPVMSVEGSSIVYSAHTESGNSGSPVLNSNNELVGIHFASDVKNDDNRNAYGVYFTPEIKKFIAENIDK
# B2: Catalytically inactive SplB mutant (S193A), recombinant (enzyme, UniProt Q2FFT0 37-240, looked up)
# chain: ENNVTKVKDTNIFPYTGVVAFKSATGFVVGKNTILTNKHVSKNYKVGDRITAHPNSDKGNGGIYSIKKIINYPGKEDVSVIQVEERAIERGPKGFNFNDNVTPFKYAAGAKAGERIKVIGYPHPYKNKYVLYESTGPVMSVEGSSIVYSAHTESGNAGSPVLNSNNELVGIHFASDVKNDDNRNAYGVYFTPEIKKFIAENIDK
# Molecular target: the molecule itself
# Experiment: SEC
row,Protein,binding result
1,B1,binds
2,B2,binds

# Source: article doi:10.1101/2025.09.10.675349 (bioRxiv, 2025)
